Measured values taken from publication PMC2760576.

What was measured:
[1] = target: integrin α6β1 (human (endogenous in FHCC98 and SMMC-7721)) (UniProt P05556)
[2] = target: integrin α6β1 (human (endogenous in FHCC98 and SMMC-7721)) (UniProt P05556); remark: listed apart in the source
[3] = target: integrin α6β1 (human (endogenous in FHCC98 and SMMC-7721)) (UniProt P05556); remark: listed apart in the source
[4] = target: integrin α6β1 (human (endogenous in FHCC98 and SMMC-7721)) (UniProt P05556); remark: listed apart in the source

Sequence of UniProt P05556 (P05556 whole entry, looked up): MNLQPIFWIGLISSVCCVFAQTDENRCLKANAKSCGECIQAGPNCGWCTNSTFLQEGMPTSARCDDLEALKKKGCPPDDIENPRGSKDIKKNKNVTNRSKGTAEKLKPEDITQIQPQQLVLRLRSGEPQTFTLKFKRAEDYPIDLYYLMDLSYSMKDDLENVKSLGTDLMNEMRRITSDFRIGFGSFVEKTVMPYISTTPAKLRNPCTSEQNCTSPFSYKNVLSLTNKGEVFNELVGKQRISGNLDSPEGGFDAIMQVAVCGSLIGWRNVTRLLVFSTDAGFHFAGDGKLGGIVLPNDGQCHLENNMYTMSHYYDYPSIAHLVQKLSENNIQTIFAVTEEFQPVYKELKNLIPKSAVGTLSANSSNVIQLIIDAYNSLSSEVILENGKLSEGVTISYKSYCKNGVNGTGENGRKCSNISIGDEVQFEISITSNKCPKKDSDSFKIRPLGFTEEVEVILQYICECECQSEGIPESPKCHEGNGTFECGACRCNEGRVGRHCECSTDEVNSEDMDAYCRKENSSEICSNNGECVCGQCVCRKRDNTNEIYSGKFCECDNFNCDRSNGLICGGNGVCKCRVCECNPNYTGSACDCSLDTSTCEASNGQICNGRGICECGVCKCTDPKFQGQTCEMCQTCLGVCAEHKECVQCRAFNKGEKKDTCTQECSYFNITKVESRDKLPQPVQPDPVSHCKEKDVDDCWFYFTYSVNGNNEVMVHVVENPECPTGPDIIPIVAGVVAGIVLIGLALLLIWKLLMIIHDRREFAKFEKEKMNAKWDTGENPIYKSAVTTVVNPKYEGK

For “HAb18G/CD147 (from UniProt P35613 22-385) (natural protein)”, the Matrigel invasion of 7721 cells, reduction of invasive cell numbers versus the blank control group; anti-α6 mAb [1] was 27.2%, the Matrigel invasion of FHCC98 cells, reduction of invasive cell numbers versus the blank group; sncRNA + GoH3 + 3S3 [2] was 34.9% and the Matrigel invasion of FHCC98 cells, reduction of invasive cell numbers versus the blank group; sncRNA + anti-α6 mAb GoH3 [2] was 32.4%. For the same substance, the Matrigel invasion of FHCC98 cells, reduction of invasive cell numbers versus the blank group; sncRNA + anti-β1 mAb 3S3 [2] was 31.1%, the gelatin zymography, reduction of the density of MMPs of FHCC98 cells versus the blank group; sncRNA + GoH3 + 3S3 [3] was 29.1% and the gelatin zymography, reduction of the density of MMPs of FHCC98 cells versus the blank group; sncRNA + anti-α6 mAb GoH3 [3] was 32.5%. The gelatin zymography, reduction of the density of MMPs of FHCC98 cells versus the blank group; sncRNA + anti-β1 mAb 3S3 [3] was 34.8%, the gelatin zymography, reduction of MMP density of 7721 cells versus the blank control group; anti-α6 mAb [4] was 22.8% and the gelatin zymography, reduction of the density of MMPs of FHCC98 cells versus the blank control group; anti-α6 mAb [4] was 18.8%.
